Assay results from paper PMC8373988 (2021).
Where a chain is given by its changes, count along the chain named. In names and notes the source's numbering stands.

B1: FICD^H363A (residues 104–445), dimeric, catalytically inactive [human] / AMPylated biotinylated-AviTag-haBiP^T229A-V461F (residues 27–635) [modified: AMP covalently attached to Thr518 (Thr518-AMP); biotin on the N-terminal Avi-tag; AMP … (parent complex)
chain 1: LEARAALNQALEMKRQGKREKAQKLFMHALKMDPDFVDALTEFGIFSEEDKDIIQADYLYTRALTISPYHEKALVNRDRTLPLVEEIDQRYFSIIDSKVKKVMSIPKGNSALRRVMEETYYHHIYHTVAIEGNTLTLSEIRHILETRYAVPGKSLEEQNEVIGMHAAMKYINTTLVSRIGSVTISDVLEIHRRVLGYVDPVEAGRFRTTQVLVGHHIPPHPQDVEKQMQEFVQWLNSEEAMNLHPVEFAALAHYKLVYIAPFIDGNGRTSRLLMNLILMQAGYPPITIRKEQRSDYYHVLEAANEGDVRPFIRFIAKCTETTLDTLLFATTEYSVALPEAQP
chain 2: not shown
B2: FICD^L258D-H363A (residues 104–445), monomeric, catalytically inactive [human] / AMPylated biotinylated-AviTag-haBiP^T229A-V461F (residues 27–635) [modified: AMP covalently attached to Thr518 (Thr518-AMP); biotin on the N-terminal Avi-tag; … (parent complex)
chain 1: B1 chain 1 with L155D
chain 2: not shown

Variants of: B1
Test: BLI; 50 nM FICD analyte; immobilised BiP activated in 2 mM ATP; read at end of apo association (600 s); parent: 0.2; read off a plot

response [nm]	Variant
~0.75	chain 1 L155D

Variants of: B1
Test: BLI; 50 nM FICD analyte; immobilised BiP-AMP activated in 2 mM ATP; read at end of apo association (600 s); parent: 0.92; read off a plot

response [nm]	Variant
~0.75	chain 1 L155D

Variants of: B1
Test: BLI; 50 nM FICD analyte; immobilised BiP-AMP activated in 2 mM ATP; read at end of apo association (600 s); parent: 0.74; read off a plot

response [nm]	Variant
~0.66	chain 1 H28A
~0.43	chain 1 K21E
~0.03	chain 1 K21E, chain 1 H28A
~0.73	chain 1 E2R

Variants of: B1
Test: BLI; 50 nM FICD analyte; immobilised BiP activated in 2 mM ATP; read at end of apo association (600 s); parent: 0.24; read off a plot

response [nm]	Variant
~0.01	chain 1 K21E
~0.04	chain 1 E2R

Variants of: B1
Test: BLI; 50 nM FICD analyte, oxidised (TPRox); immobilised BiP activated in 2 mM ATP; read at end of apo association (600 s); parent: 0.24; read off a plot

response [nm]	Variant
~0.31	chain 1 D57C, chain 1 T80C, chain 1 C318S

Variants of: B1
Test: BLI; 50 nM FICD analyte, oxidised (TPRox); immobilised BiP-AMP activated in 2 mM ATP; read at end of apo association (600 s); parent: 0.74; read off a plot

response [nm]	Variant
~0.79	chain 1 D57C, chain 1 T80C, chain 1 C318S

Variants of: B2
Test: BLI; 50 nM FICD analyte; immobilised BiP-AMP activated in 2 mM ATP; read at end of apo association (600 s); parent: 0.7; read off a plot

response [nm]	Variant
~0.2	chain 1 H28A
~0.12	chain 1 E2R

Variants of: B2
Test: BLI; 50 nM FICD analyte, oxidised (TPRox); immobilised BiP activated in 2 mM ATP; read at end of apo association (600 s); parent: 0.68; read off a plot

response [nm]	Variant
~0.92	chain 1 D57C, chain 1 T80C, chain 1 C318S

Variants of: B2
Test: BLI; 50 nM FICD analyte, oxidised (TPRox); immobilised BiP-AMP activated in 2 mM ATP; read at end of apo association (600 s); parent: 0.7; read off a plot

response [nm]	Variant
~0.91	chain 1 D57C, chain 1 T80C, chain 1 C318S
